This is an account of results in patent publication US20250282851A1.

The target in test [1] is Gn protein of Rift Valley fever virus (Rift Valley fever virus).
The target of test [2] is purified truncated Gn protein of Rift Valley fever virus (Rift Valley fever virus).
Test [3] shares this target. Description: ELISA, truncated Gn coated at 2 ug/mL, 50 uL 293T expression supernatant.

B1: monoclonal antibody A38 (antibody, V domains shown)
VH: VQLVQELGPGLVKPSETLSLTCAVSGYSISSPYSWGWIRQPPGKGLEWIGGVYSSGEIRHLDPSLKSRVTLSLDTSKNQFSLKLNSVTAADTAVYFCASANGGVAQDAFDFWGQGLRVTVSS
VL: QPVLTQPPSLSAPPGASARLPCTLSSDLSVTSLNIYWYQQKSGSAPRLFLYYYSDSDKQLGPGVPSRVSGSKETSSNTALLFISGLQPEDEADYYCQVYDSSAYVLFGGGTRLTVLG
In test [1], B1 showed an equilibrium dissociation constant (Kd) of 0.972 nM, a koff of 0.00013 s⁻¹ and a kon of 133000 M⁻¹ s⁻¹. In addition, in test [2], the EC50 is 4.51 ng/mL. The OD value (OD450 nm-OD630 nm) in test [3] is 1.4 OD.
